Source: PMC5531254, “MRE11 stability is regulated by CK2-dependent interaction with R2TP complex” (Oncogene, 2017)
One block for each molecule: values may come before it. No end group written: not given here.

Columns and labels:
[1] = target: PIH1D1 N-terminal PIH-N domain fragment (UniProt Q9NWS0); test: ITC; MRE11 peptides with purified PIH1D1 PIH-N domain fragment, performed as described previously
PIH1D1 (51-180) [2] = target: PIH1D1 (51-180) (UniProt Q9NWS0); test: ITC; ~80 uM protein and ~800 uM peptide; performed in triplicate, means ± standard deviation; ITC as described previously
PIH1D1 (51-180) [3] = target: T1, PIH1D1 (51-180) (UniProt Q9NWS0 51-180); test: as above; conditions: both partners purified
T1 construct: also called PIH1D1 N-terminal PIH-N domain fragment (aa 51-180); PIH-N; source: purified as described previously
T1 sequence (Q9NWS0 51-180): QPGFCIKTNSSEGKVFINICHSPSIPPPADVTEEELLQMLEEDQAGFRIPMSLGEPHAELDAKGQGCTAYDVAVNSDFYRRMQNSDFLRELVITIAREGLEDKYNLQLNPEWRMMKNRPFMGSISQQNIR

Chain of PIH1D1 (51-180) (UniProt Q9NWS0) (Q9NWS0 51-180): as above

Kd [1]: 41 µM
Molecule: MRE11 third acidic sequence peptide phosphorylated on serines 688 and 689

Kd (PIH1D1 (51-180) [2]): 26.1 µM | stoichiometry N (PIH1D1 (51-180) [2]): 1.1
Molecule: MRE11 pS558/pS561 peptide (ITC)

The next lines start with the molecule.

Molecule: MRE11 pS688/pS689 peptide (ITC)
Kd (PIH1D1 (51-180) [2]): 40.9 µM | stoichiometry N (PIH1D1 (51-180) [2]): 0.8

Molecule: MRE11 DpSDD motif-containing peptide phosphorylated on serines 558 and 561
Kd [1]: 26 µM

B1: TEL2 pS491 peptide (peptide)
peptide: YSDLDSDDEFVPY
modifications: also: phosphoserine at 491 (TEL2 numbering), position in peptide not given here
notes: N-terminal tyrosine added for concentration determination; not part of TEL2; source: synthetic peptide
stoichiometry N (PIH1D1 (51-180) [3]): 1.3
